The record followed here is US20180215829A1 (CRESCENDO BIOLOGICS, published 2018).

The target of assay [1] is T1, human IL-17RA on HT1080 cells (human, UniProt Q96F46 33-866).
T1 sequence: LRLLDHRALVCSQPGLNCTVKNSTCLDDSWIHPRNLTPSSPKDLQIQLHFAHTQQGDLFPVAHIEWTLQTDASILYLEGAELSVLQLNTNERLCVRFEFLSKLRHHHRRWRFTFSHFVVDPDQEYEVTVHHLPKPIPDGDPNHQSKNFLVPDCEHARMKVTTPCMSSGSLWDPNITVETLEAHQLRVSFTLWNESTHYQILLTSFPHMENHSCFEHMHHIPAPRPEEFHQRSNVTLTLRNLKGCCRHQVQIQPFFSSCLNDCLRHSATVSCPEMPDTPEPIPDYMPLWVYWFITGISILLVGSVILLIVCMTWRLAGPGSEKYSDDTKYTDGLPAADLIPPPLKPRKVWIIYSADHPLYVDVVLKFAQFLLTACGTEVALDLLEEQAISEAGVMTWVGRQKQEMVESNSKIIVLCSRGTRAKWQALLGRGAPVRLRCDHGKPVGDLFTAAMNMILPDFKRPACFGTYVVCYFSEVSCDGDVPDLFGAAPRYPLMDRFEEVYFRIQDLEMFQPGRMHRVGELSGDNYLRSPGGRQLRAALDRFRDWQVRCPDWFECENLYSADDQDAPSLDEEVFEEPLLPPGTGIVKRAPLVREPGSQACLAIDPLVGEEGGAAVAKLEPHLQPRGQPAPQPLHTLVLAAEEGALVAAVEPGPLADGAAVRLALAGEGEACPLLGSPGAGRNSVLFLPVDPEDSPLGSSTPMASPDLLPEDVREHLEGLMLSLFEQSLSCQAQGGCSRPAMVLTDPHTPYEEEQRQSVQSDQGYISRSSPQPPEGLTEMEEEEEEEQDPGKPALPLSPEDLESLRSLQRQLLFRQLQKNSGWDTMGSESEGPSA
As to the kind of experiment: cell-based or functional assay.

The next assay concerns the target T2, IL-17RB (UniProt Q9NRM6 18-289, limits assumed).
T2 sequence (looked up): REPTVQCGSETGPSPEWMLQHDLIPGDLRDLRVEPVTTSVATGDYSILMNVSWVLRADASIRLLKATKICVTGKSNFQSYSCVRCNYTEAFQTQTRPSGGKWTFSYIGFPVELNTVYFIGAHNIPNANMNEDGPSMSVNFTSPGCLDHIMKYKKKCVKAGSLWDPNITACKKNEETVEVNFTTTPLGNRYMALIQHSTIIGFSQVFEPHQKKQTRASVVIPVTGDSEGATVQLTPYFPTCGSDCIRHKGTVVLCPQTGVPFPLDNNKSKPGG
As to the kind of experiment: specificity ELISA, antigen coated, anti-His-HRP detection. Here is the method: (§1) The binding ELISA for crude or purified VH was similar to the serum ELISA and phage ELISA, previously described, mostly differing in the final detection steps. Briefly, antigen was immobilised on maxisorb plates (Nunc 443404) by adding 50 ul volumes at 0.1-1 ug/ml in PBS and incubating at 4° C. overnight. Following coating, the antigen solution was aspirated and the plates were washed using PBS (prepared from PBS tablets, Oxoid cat no. BR0014G) supplemented with 0.05% Tween® 20 (sigma P1379), followed by washes with PBS without added Tween®. To block non-specific protein interactions, a solution of 3% skimmed milk powder (Marvel) in PBS was added to the wells and the plate was incubated for at least one hour at room temperature. Dilutions of periplasmic extract or purified VH in 3% Marvel/PBS were prepared in polypropylene tubes or plates and incubated for at least one hour at room temperature prior to transfer to the blocked ELISA plate where a further incubation of at least one hour took place. Unbound protein was then washed away using repetitive washes with PBS/Tween® followed by PBS. A solution of HRP-conjugated anti-His Ab (Miltenyi Biotec, 130-092-785), prepared at 1:1000 dilution in PBS/3% Marvel was then added to each well and a further incubation at room temperature for at least one hour took place. Unbound detection antibody was removed by repeated washing using PBS/Tween® and PBS. The ELISA was then developed using TMB substrate (Sigma cat. no. T0440) and the reaction was stopped after 10 minutes by the addition of 0.5M H₂SO₄ solution (Sigma cat. no. 320501). Absorbances were determined by reading at 450 nm.

Another assay addresses T3, IL-17RD (UniProt Q8NFM7 17-299, limits assumed).
T3 sequence (looked up): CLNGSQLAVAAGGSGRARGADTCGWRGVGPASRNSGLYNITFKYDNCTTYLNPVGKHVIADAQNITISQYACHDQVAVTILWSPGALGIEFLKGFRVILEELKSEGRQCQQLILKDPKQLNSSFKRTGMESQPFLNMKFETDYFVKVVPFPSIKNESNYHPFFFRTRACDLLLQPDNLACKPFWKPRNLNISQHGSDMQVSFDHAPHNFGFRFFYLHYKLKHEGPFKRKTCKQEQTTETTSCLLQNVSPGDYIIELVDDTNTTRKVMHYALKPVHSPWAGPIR
The assay is described as above. Here is the method:
as §1

B1: VH clone 2.1 (VHH)
VHH: QVQLVQSGAEVKKPGASVKVSCKASGYPFTSYDINWVRQATGQSLEWMGWMNPNSGDTVYAQKFQGRVTMTRNTSISTAYMELSSLRSEDTAVYFCARGRRDDWKNNYWGQGTLVTVSS
notes: Human VH single domain antibody, no light chain; Parent clone of family 2; also called VH 2.1
For the molecule B1, the “IC50 (nM), cell-based assay” value in assay [1] worked out at 363 nM. Moreover, the binding result with IL-17RB and in the assay with IL-17RD was “no binding” in each case.
